According to patent US20260183411A1, “TARGETING SORTILIN” (priority 2024, published 2026):
Where no end group is shown, it is not given here. [ ]: non-standard residue; d: D form. Cba = N[C@@H](CC1CCC1)C(=O)O; Tle = CC(C)(C)[C@H](N)C(=O)O

Columns and labels:
[1] = Maximum tolerated dose (MTD) study; format: in vivo, mouse; conditions: 10 mg/kg i.v. single dose
Procedure: BALB/c Nude mice, female, 6-8 weeks, weighing approximately 18-22 g were purchased from the Shanghai SLAC Laboratory Animal Co., LTD. MTD studies were conducted at WuXi AppTec and the care and use of animals was conducted in accordance with the regulations of the Association for Assessment and Accreditation of Laboratory Animal Care (AAALAC). Two MTD studies were performed (a) a low dose study with doses ranging from 0.1, 0.5, 1 and 3 mg/kg and (b) a high dose study with doses ranging from 3, 5, 10 mg/kg. Dosing volume was determined based on body weight (10 ul/g) and PDCs were dissolved in 25 mM Histidine 10% sucrose pH 7 and administered i.v. at a single dose at day 0. The treatment and observation were conducted up to 7 days and MTD was defined by ≥20% body weight loss. Body weights were measured daily, death and observed clinical signs were recorded.
Doses of 3, 5, and 10 mg/kg were administered. MTD was defined by ≥20% body weight loss and body weight measured daily.

[2] = target: T1, SORT1 on cells (HEK293 cells transiently transfected with / overexpressing SORT1); SORT1-expressing MDA-MB-231 … (UniProt Q99523 78-831, limits assumed); test: cell-based or functional assay
T1 sequence (looked up): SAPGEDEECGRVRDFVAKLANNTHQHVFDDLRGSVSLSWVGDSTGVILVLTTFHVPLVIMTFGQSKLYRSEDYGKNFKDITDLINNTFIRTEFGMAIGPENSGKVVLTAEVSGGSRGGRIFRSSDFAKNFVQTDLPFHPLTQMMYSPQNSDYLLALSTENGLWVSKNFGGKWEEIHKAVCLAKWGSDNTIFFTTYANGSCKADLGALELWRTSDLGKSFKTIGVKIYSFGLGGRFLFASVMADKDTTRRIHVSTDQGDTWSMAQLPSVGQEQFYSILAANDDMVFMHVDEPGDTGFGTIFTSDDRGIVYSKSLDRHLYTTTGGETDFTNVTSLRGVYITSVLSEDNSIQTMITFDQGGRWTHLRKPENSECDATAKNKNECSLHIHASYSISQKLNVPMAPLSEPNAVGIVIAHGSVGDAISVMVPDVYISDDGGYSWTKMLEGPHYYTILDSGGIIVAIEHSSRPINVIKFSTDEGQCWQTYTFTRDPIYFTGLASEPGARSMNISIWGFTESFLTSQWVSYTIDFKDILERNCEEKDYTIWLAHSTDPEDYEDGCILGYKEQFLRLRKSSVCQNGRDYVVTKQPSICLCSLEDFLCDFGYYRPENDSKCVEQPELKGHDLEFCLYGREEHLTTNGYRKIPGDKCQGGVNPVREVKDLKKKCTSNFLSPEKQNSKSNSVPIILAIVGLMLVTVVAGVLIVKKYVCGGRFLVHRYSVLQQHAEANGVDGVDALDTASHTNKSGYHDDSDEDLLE

cyno SORT1 (76-753)-His = target: T2, cyno SORT1 (76-753)-His (cyno, UniProt A0A2K5VHG2 74-751); test: SPR (Biacore 8K), SORT1 on CM5 chip, siRNA-peptide conjugate as analyte, 1:1 model
T2 construct: range 76-753; Amine-coupled to CM5 chip for SPR
T2 sequence: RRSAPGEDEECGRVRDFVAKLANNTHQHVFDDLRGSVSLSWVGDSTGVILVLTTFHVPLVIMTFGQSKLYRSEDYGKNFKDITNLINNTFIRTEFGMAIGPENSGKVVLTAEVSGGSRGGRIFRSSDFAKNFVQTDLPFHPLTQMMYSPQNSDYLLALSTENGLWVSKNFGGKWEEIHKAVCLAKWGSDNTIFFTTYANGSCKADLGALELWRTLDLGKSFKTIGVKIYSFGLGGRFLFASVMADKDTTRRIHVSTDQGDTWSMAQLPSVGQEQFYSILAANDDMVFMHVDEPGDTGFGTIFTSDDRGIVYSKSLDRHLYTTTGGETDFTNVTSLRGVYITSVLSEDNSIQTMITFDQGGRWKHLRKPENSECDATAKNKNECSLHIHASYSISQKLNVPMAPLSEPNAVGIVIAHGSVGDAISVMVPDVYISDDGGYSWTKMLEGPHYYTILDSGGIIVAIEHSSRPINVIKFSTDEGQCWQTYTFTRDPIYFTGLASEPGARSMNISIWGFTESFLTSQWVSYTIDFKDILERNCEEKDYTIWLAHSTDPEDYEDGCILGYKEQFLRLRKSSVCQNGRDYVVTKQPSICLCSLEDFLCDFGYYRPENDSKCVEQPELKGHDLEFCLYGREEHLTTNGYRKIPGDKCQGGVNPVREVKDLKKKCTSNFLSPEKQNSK
Procedure: (§1) SPR analysis was performed on Series S CM5 chips (Cytiva) using a Biacore 8K instrument (Cytiva). Sensorgrams were double-referenced by subtracting the response on both a reference flow cell and a blank sample. Human SORT1 (78-755)-His (Acrobiosystems), human SORT1 (78-755)-His(GenScript), mouse SORT1 (76-753)-His (R&D Systems), rat SORT1 (76-752)-His (GenScript), and cyno SORT1 (76-753)-His (GenScript) were diluted to 20-60 μg/mL in 10 mM sodium acetate pH 4.5 buffer and immobilized onto Series S CM5 chips using amine coupling at a flow rate of 10 μL/min for 45-100 s.
(§2) Ten start-up cycles and a blank cycle preceded each analysis run. The runs were performed by sequential injections of analyte (0-20 nM, 3-fold serial dilutions) with a 90 s association and 900 s dissociation at a flow rate of 30 μL/min, followed by two regeneration cycles with 2 M MgCl2 for 90 s at a flow rate of 10 μL/min. […] Five start-up cycles and a blank cycle preceded each analysis run. The runs were performed by sequential injections of analyte (0-25 nM) with a 150 seconds (s) association and 300 s dissociation at a flow rate of 30 μL/min, followed by a regeneration with 2 M MgCl₂ for 200 s at a flow rate of 10 μL/min. The kinetic rate constants (kₐ and kd) and the equilibrium binding constant (Kd) were calculated using a 1:1 kinetic binding model on the Biacore Insight Evaluation Software (Cytiva).
(§3) SPR analysis was performed on Series S CM5 chips (Cytiva) using a Biacore 8K instrument (Cytiva). Sensorgrams were double-referenced by subtracting the response on both a reference flow cell and a blank sample. The SPR analysis was conducted using four different SORT1 species: Human SORT1, Mouse SORT1, Rat SORT1, and Cyno SORT1. The samples were prepared according to the general procedure described above herein. The kinetic rate constants (ka and […]) and the equilibrium binding constant (Kd) were calculated using a 1:1 kinetic binding model on the Biacore Insight Evaluation Software (Cytiva).

rat SORT1 (76-752)-His = target: T3, rat SORT1 (76-752)-His (rat, UniProt O54861 76-752); test: as above
T3 construct: range 76-752; Amine-coupled to CM5 chip for SPR
T3 sequence (looked up): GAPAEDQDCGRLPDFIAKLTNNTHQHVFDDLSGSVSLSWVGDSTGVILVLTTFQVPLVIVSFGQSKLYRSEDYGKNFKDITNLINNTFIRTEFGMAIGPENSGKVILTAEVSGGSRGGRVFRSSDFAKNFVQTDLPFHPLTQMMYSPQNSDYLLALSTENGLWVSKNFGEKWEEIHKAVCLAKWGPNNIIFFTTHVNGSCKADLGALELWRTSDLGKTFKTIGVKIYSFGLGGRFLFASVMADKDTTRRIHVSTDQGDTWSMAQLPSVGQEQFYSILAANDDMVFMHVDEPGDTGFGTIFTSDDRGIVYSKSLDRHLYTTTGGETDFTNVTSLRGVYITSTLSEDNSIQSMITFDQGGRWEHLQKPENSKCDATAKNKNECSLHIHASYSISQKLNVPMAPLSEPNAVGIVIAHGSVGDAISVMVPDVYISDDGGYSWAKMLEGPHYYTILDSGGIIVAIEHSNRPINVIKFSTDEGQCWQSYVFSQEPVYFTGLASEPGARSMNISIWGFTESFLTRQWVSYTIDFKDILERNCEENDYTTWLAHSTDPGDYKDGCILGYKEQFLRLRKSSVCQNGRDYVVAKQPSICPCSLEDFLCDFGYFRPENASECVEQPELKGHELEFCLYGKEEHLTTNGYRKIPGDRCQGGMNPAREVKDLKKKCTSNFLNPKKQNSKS
Procedure: as §1, §2, §3

mouse SORT1 (76-753)-His = target: T4, mouse SORT1 (76-753)-His (mouse, UniProt Q6PHU5 76-753); test: as above
T4 construct: range 76-753; Amine-coupled to CM5 chip for SPR
T4 sequence (looked up): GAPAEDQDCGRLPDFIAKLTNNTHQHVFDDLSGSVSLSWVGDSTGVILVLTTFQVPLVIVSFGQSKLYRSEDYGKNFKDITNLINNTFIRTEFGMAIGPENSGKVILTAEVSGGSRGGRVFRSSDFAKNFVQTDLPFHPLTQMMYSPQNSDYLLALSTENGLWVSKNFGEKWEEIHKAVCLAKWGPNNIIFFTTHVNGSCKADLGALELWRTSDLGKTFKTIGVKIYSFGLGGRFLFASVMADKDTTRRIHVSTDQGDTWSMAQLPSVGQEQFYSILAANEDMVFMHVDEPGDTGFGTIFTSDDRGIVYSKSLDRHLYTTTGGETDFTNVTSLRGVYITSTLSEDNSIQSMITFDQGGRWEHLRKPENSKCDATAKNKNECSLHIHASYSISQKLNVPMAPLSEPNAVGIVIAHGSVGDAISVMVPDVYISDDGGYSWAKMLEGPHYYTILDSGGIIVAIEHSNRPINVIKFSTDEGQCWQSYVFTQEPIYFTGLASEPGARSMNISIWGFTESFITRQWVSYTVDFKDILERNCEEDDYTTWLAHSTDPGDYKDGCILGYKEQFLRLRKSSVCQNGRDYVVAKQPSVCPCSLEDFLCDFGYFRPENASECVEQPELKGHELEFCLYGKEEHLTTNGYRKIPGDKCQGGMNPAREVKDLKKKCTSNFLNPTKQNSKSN
Procedure: as §1, §2, §3

Question: For CC[C@H](C)[C@@H]([C@@H](CC(=O)N1CCC[C@H]1[C@H](OC)[C@@H](C)C(=O)N[C@H](C)[C@@H](O)c1ccccc1)OC)N(C)C(=O)[C@@H](NC(=O)[C@H](C(C)C)N(C)C(=O)OCc1ccc(NC(=O)[C@H](CCCNC(N)=O)NC(=O)[C@@H](NC(=O)CCCC(=O)NCCC(=O)N(C)CC(=O)N(C)CC(=O)N(C)CC(=O)N(C)CC(=O)N[C@@H](CC(=O)O)C(=O)N[C@@H](CC(=O)O)C(=O)N2CCC[C@H]2C(=O)N[C@@H](CCCNC(=N)N)C(=O)N[C@@H](C)C(=O)N2CCC[C@H]2C(=O)N[C@@H](Cc2c[nH]c3ccccc23)C(=O)N2CCC[C@H]2C(=O)N[C@@H](C)C(=O)N[C@@H](CC(C)C)C(=O)N[C@@H](CCC(N)=O)C(=O)N[C@@H](CCCNC(=N)N)C(=O)N[C@@H](CC(C)C)C(=O)N[C@@H](C)C(=O)N[C@@H](CC(C)C)C(=O)N[C@@H](CCCNC(=N)N)C(=O)N[C@@H](CC(C)C)C(=O)O)C(C)C)cc1)C(C)C [PRGN_RL_PDC], which toxicity [1] is on record?
Answer: mild toxicity

B1: Peptide 2-GAPDH6-SPDP (peptide)
peptide: CXXXXXAPRWDAPLRDPALRQXX
modifications: N-terminal Ac; Cys 1 side chain in a disulphide with SPDP on the 5' end of the sense strand of GAPDH siRNA; 2: (bAla); 3-6: (Sar); 22: (B13); 23: (G48)
Question: For B1, which “GAPDH mRNA % knockdown compared to untreated cells (RT-qPCR), HEK293 + SORT1 - CQ” value (“GAPDH mRNA % knockdown” below) [2] is on record?
Answer: 36%

B2: Peptide 2-GAPDH6-BCN (peptide)
peptide: XXXXXXAPRWDAPLRDPALRQXX
modifications: N-terminal 6-azidohexanoic acid joined by a triazole to hexyl-BCN on the 5' end of the sense strand of GAPDH siRNA; 1: (bAla); 2-5: (Sar); 21: (B13); 22: (G48)
Question: For B2, which “GAPDH mRNA % knockdown” value [2] is on record?
Answer: 47%

B3: Peptide 2-GAPDH6-thiol (peptide)
peptide: XXXXXAPRWDAPLRDPALRQXX
modifications: not fully specified; N-terminal maleimide joined by a thioether to 6-mercaptohexanoic acid on the 5' end of the sense strand of GAPDH siRNA; 1: (bAla); 2-5: (Sar); 21: (B13); 22: (G48)
Question: For B3, which “GAPDH mRNA % knockdown” value [2] is on record?
Answer: 40%

B4: SORT1 peptide 2 conjugate (peptide)
peptide: APRWDAPLRDPALRQ[Tle][Cba]
modifications: also: conjugated to siRNA targeting a housekeeping gene mRNA, linker and handle not given here
notes: also called SORT1 peptide 2 siRNA conjugate; Arb-SAR-Q15_PDC2
Question: For B4, which Kd (cyno SORT1 (76-753)-His) is on record?
Answer: 4.81 nM

Question: And the Kd (rat SORT1 (76-752)-His)?
Answer: 14.6 nM

Question: And the Kd (mouse SORT1 (76-753)-His)?
Answer: 8.56 nM

B5: SORT1 peptide 1 conjugate (peptide)
peptide: APRWDAPLRDPALRQLL
modifications: also: conjugated to siRNA, linker and handle not given here
notes: also called SORT1 peptide 1 siRNA conjugate
Question: With B5 as the molecule, how does the Kd (cyno SORT1 (76-753)-His) read?
Answer: 16.8 nM

Question: What about the Kd (rat SORT1 (76-752)-His) of the same molecule?
Answer: 49.2 nM

Question: What about the Kd (mouse SORT1 (76-753)-His) of the same molecule?
Answer: 30.2 nM
